“And” between values parts separate entries of the source, which are not always exact repeats. Equal entries are not always repeated.
Legend:
[1] = target: T1, recombinant human IL-18Rα Fc chimera (R&D Systems, Cat. No. 816-LR) (human, UniProt Q13478 19-329); test: competition ELISA: inhibition of biotinylated IL-18 (+IL-18Rβ) binding to captured IL-18Rα Fc chimera
T1 construct: Bought protein; also called hIL-18Rα (hFc-chimera R&D-Systems 816-LR); recombinant human IL-18Rα-Fc fusion protein; not shown: human Fc of the commercial chimera
T1 sequence: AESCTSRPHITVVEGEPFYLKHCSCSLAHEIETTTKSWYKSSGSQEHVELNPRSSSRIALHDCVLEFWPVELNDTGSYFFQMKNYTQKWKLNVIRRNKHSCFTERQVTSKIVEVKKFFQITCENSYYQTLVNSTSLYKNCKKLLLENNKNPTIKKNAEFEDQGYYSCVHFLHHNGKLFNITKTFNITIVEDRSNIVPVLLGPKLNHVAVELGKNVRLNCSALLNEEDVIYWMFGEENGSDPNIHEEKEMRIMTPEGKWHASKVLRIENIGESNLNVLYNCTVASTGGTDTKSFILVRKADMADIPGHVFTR
Protocol: The test was performed on 384 well microtiter plates at room temperature (RT). After each incubation step plates were washed 3 times with PBST (Phosphate Buffered Saline Tween®-20). At the beginning, plates were coated with 0.5 μg/ml goat anti-human IgG Fc fragment (Jackson 1 mm. Res., US, Cat. No. 109-006-170) for at least 2 hours (h). Thereafter the wells were blocked with PBS supplemented with 0.1% Tween®-20 and 2% BSA (Roche Diagnostics GmbH, DE) for 1 h. 0.2 μg/ml of recombinant human IL-18Rα Fc chimera (R&D Systems, UK, Cat. No. 816-LR) was captured for 1 h. Dilutions of purified antibodies in PBS with 0.5% BSA and 0.05% Tween®-20 were incubated with the receptor protein for 1 h. Biotinylated human IL-18 (MBL International, US, Cat. No. B003-5) and 0.2 μg/ml IL-18R13 (R&D Systems, UK, Cat. No. 118-AP) were added for an additional hour to build up the trimeric complex. IL-18 was biotinylated with Sulfo-NHS-LC-Biotin (Thermo Scientific Pierce, US, Cat. No. 21327) according to the manufacturer's protocol and purified using Zeba™ Desalt Spin Column (Thermo Scientific Pierce, US, Cat. No. 89889). Binding of the biotinylated IL-18 to the complex was detected with 1:2000 diluted streptavidin HRP (Roche Diagnostics GmbH, DE, Cat. No. 11089153001). […] Absorbance was measured at 370 nm. […]

[2] = target: T2, human IL-18Rα/IL-18Rβ on transfected HEK293 cells (human, UniProt O95256 20-599); test: FACS on transfected HEK293 cells, antibody 1 µg/ml
T2 construct: whole, on cells; also called human IL-18Ralpha+IL-18Rβ subunits
T2 sequence 1: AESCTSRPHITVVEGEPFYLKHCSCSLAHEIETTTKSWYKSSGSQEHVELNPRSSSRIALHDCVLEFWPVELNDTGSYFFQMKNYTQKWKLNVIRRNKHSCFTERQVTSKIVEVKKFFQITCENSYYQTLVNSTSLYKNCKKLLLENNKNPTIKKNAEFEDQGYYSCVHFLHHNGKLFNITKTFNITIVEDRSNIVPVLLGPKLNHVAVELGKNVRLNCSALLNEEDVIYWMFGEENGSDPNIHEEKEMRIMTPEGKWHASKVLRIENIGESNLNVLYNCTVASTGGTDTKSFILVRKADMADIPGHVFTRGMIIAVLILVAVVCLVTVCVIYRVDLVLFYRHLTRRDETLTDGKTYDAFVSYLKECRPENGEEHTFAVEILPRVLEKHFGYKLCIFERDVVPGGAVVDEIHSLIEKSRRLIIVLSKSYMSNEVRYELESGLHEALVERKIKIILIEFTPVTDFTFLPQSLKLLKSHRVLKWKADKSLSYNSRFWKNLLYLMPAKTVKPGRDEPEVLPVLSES
T2 sequence 2: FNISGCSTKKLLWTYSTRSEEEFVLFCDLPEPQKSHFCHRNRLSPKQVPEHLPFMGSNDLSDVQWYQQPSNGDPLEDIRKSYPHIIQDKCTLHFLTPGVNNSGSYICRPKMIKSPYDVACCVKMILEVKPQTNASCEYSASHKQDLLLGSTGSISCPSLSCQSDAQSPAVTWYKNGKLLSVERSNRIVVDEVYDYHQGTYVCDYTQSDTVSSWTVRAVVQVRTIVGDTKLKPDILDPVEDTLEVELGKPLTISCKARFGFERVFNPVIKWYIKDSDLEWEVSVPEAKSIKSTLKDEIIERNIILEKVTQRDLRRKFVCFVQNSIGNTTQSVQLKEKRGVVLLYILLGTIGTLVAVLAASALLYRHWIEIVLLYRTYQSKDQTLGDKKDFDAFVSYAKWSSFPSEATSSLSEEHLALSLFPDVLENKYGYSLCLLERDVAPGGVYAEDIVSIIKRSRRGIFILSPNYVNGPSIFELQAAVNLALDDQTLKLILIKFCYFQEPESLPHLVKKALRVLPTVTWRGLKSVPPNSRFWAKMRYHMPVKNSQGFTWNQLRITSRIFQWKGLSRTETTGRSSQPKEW
Protocol: 10⁶ HEK293 cells were transfected with a plasmid expressing human IL-18Ralpha+IL-18Rβ. Transfected cells were incubated for 1 day. 1×10⁵ cells were incubated on ice in PBS-buffer+2% FCS and stained with an IL-18Rα antibody (1 μg/ml). As secondary antibody anti-mouse IgG1-PE from R&D Systems (F0102B) was added in 1:20 dilution and as isotype control mouse IgG1 from BD Pharmingen (557273) was used at a concentration of 1 μg/ml.

[3] = target: T1, recombinant human IL-18Rα Fc chimera …; test: SPR (BIACORE), 37°C, antibody captured, hIL-18Rα hFc chimera in solution
Protocol: Coupling: amine coupling Buffer: 1×PBS (10×PBS, Ambion cat. AM9625), pH 7.4, 37° C. […] Association was measured by a hIL-18Rα-injection of 1.5 minutes at 37° C.; dissociation was measured by washing the chip surface with buffer for 10 minutes at 37° C. For calculation of apparent KD and other kinetic parameters the Langmuir 1:1 model was used.

| Binder | IC50 [1] | binding result [2] | koff [3] | kon [3] | t1/2 [3] |
| --- | --- | --- | --- | --- | --- |
| Mab 1G12 (antibody, V domains shown, Monoclonal antibody from immunized NMRI mice; detected with anti-mouse IgG1-PE / anti-mouse IgG; also called F20.1G12; monoclonal antibody 1G12) VH: QVQLQQPGAELVKPGASVRMSCKTSDYTFTSNWMHWVKQRPGQGLEWIGTIDPSDSYTYYNQKFKGRATLTVDTSSSTAYMQLSSLTSEDSAVYYCTTSGDYDADRYFDVWGAGTTVTVSS VL: DIVLTQSPASLGVSLGQRATISCRASKSVSTSGDSYMHWYQQKPGQSPKLLIYLASNLESGVPARFSGSGSGTDFTLNIHPVEEEDAATYYCQQSRELPLSFGAGTKLELK | 0.022 µg/mL and 0.15 nM | binds | 0.0002 s⁻¹ | 8.2e+06 M⁻¹ s⁻¹ | 0.967 h |
| Mab 2D11 (antibody, V domains shown, Monoclonal antibody from immunized NMRI mice; detected with anti-mouse IgG1-PE / anti-mouse IgG; also called F20.2D11) VH: QVQLQQPGAELVKPGASVKMSCKASDYTFTSNWMHWVKQRPGQGLEWIGTIDPSDSYTYYNQKFKGKATLTVDTSSSTAYMHLSSLTSEDSAVYYCTTSGDYDADRYFDVWGAGTTVTVSS VL: DIVLTQSPASLGVSLGQRATISCRASKSVSTSGDSYMHWYQQKPGQSPKLLIYLASNLESGVPARFSGSGSGTDFTLNIHPVEEEDAATYYCQQSRELPLSFGAGTKLELK | 0.029 µg/mL and 0.19 nM | binds | 0.00019 s⁻¹ | 7e+06 M⁻¹ s⁻¹ | 1.03 h |

From patent US20120156198A1 (Hoffmann-La Roche, published 2012)
